Experiment [1] addresses T1, Human PD-1 expressed on CHO-K1 cells (CHO-K1/hPD-1) (human, UniProt Q15116 25-288).
T1 construct: whole, on cells; also called CHO-K1 cells overexpressing human PD-1
The experiment can be described thus: FACS, CHO-K1/hPD-1 cells. The procedure: (§1) In order to investigate the in vitro binding activity of the PD-1 antigen-binding proteins to human/cynomolgus monkey PD-1, the binding assay at the cellular level was performed using a CHO-K1 cell strain overexpressing human or cynomolgus monkey PD-1 (CHO-K1/hPD-1 or CHO-K1/cyno PD-1, from GenScript). Briefly, the CHO-K1-hPD-1 cells were digested and resuspended in an F-12K complete medium, and the cell density was adjusted to 1×10⁶ cells/mL. The cells were seeded in a 96-well V-bottom plate (Corning, Cat#3894) at 100 μL/well, followed by the addition of the test antigen-binding proteins with concentrations 2-fold of final concentrations obtained by 5-fold gradient dilution were each added at 100 μL/well. The mixtures were well mixed. The maximum final concentration of the antigen-binding proteins was 100 nM or 300 nM. A total of 8-11 concentrations were set. hIgG was used as a control. The cells were incubated at 4° C. for 1 h away from light. Thereafter, the cells in each well were rinsed twice with 100 μL of pre-cooled PBS, and centrifuged at 500 g at 4° C. for 5 min, and then the supernatant was discarded. Then 100 μL of a fluorescent secondary antibody (goat anti-human IgG (H+L) secondary antibody, Alexa Fluor® 488 conjugate, Invitrogen, Cat #A11013, 1:1000) was added to each well. The plate was incubated away from light at 4° C. for 30 min. The cells in each well were rinsed twice with 200 μL of pre-cooled PBS, and centrifuged at 500 g at 4° C. for 5 min, and then the supernatant was discarded. Finally, the cells in each well were resuspended in 200 μL of pre-cooled PBS, and the fluorescence signal values were read using a BD FACS CANTOII.

The target in experiment [2] is T1, Human PD-1 expressed on CHO-K1 cells …. The experiment can be described thus: FACS, CHO-K1/hPD-1 cells. The protocol:
as §1
This is another data set of the same source.

In experiment [3] the target is T2, Human PD-1 protein with histidine and avi tags (ACRO Biosystems, PD1-H82E4) (human, UniProt Q15116 25-167).
T2 construct: Captured on streptavidin (SA) sensors in the BLI assay; not shown: histidine and avi tags
The experiment can be described thus: BLI (Octet Red96e), PD-1 captured on SA sensor, 1:1 local fit. The procedure: (§2) Human PD-1 proteins with histidine and avi tags were purchased from the manufacturer ACRO Biosystems (Cat#: PD1-H82E4), and the assay buffer was 1× kinetics buffer (diluted from 10× kinetics buffer (ForteBio, Cat#: 18-1105)) for kinetic assay and dilution of antigens and antibodies. The binding kinetics between the antigen and the antibody was analyzed by the biolayer interferometry (BLI) technique using an Octet molecular interaction analyzer (ForteBio, model: Octet Red96e).
(§3) When the binding kinetics between the antigen and the antibody was determined, the rotation speed of the sensor was set at 1000 rpm/min. The eight SA sensors placed in a column were first equilibrated in an assay buffer for 10 min and then used to capture PD-1 at a capture height of 0.5 nm. Thereafter, the SA sensors were equilibrated in the assay buffer for 100 s, and then were associated with each antibody diluted to a single concentration and with a row of blank buffer wells for 180 s, followed by dissociation for 600 s. A new column of SA sensors were used in each cycle.
(§4) When data analysis was performed using Octet Data Analysis software (Fortebio, version 11.0), the reference signals were subtracted by a single reference mode (reference well), the data were fitted by a “1:1 Local fitting” method, and the kinetic parameters of the binding of the antigen to the antibody were calculated to obtain kon (1/Ms) values, kdis (1/s) values and KD (M) values.

The target in experiment [4] is T2, Human PD-1 protein with histidine and …. The experiment can be described thus: BLI; ratio of kdis, apparently PR005090 over the variant. The procedure:
as §2, §3, §4

Experiment [5] has as its target T1, Human PD-1 expressed on CHO-K1 cells …. The experiment can be described thus: FACS blocking of biotin-labeled human PD-L1 binding to CHO-K1-hPD-1 cells. The procedure: Briefly, the CHO-K1-hPD-1 cells were digested and resuspended in an F-12K complete medium, and the cell density was adjusted to 1×10⁶ cells/mL. The cells were seeded in a 96-well V-bottom plate (Corning, Cat#3894) at 100 μL/well, followed by the addition of the test antigen-binding proteins with concentrations 2-fold of final concentrations obtained by 3-fold or 5-fold gradient dilution were each added at 100 μL/well. The mixtures were well mixed. The maximum final concentration of the antigen-binding proteins was 100 nM or 300 nM. A total of 8 concentrations were set. hIgG was used as a control. The cells were incubated at 4° C. for 1 h away from light. […] The cells were incubated at 4° C. away from light for 30 min. The cells in each well were rinsed twice with 100 μL of pre-cooled PBS, and centrifuged at 500 g at 4° C. for 5 min, and then the supernatant was discarded. A fluorescent secondary antibody (PE Streptavidin, BD, Cat# 554061, 1:200) was added at 100 μL/well, and the cells were incubated at 4° C. away from light for 30 min. The cells in each well were rinsed twice with 200 μL of pre-cooled PBS, and centrifuged at 500 g at 4° C. for 5 min, and then the supernatant was discarded. Finally, the cells in each well were resuspended in 200 μL of pre-cooled PBS, the fluorescence signal values were read using a BD FACS CANTOII, and the IC₅₀ values were calculated.

Like-named read-outs stand apart in the source and are kept apart here.

The results in this text go back to patent publication US20240034792A1 (HARBOUR BIOMED SHANGHAI, published 2024).

T2 sequence (Q15116 25-167 limits assumed): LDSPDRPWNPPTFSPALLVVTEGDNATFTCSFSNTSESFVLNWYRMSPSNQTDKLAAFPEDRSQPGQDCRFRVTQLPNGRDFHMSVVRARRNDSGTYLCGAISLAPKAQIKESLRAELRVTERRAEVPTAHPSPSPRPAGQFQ
T1 sequence (Q15116 25-288): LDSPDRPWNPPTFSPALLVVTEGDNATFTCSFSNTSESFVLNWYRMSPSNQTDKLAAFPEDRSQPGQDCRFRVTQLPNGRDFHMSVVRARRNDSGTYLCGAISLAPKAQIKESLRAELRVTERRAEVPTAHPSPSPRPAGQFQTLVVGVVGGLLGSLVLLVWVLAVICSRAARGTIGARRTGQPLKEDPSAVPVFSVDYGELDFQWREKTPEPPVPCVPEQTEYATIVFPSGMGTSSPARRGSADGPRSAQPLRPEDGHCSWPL

B1: PR005090 (VHH)
VHH: EVQLVETGGGLIQPGGSLRLSCAASGFNVSSHYMSWVRQAPGKGREWVSIIDGGGSTYYADSVKGRFTISRDNSKNRLYLQMNSLRAEDTAMYYCARATAVAEKNGYNYPFNYWGQGTLVTVSS
notes: Monovalent single-domain (VH) antibody with Flag-6His tag
As for B1, in experiment [1], the midpoint of the response, the EC50, lay at 48.9 nM and the “MFI Maximum” value was determined as 4150. In experiment [2], the EC50 was found to be 48.9 nM and the “MFI Maximum” value was found to be 4150. Besides, in experiment [3], the Kd is 20.8 nM, the koff came out at 0.00114 s⁻¹ and the on-rate (kon) is 55000 M⁻¹ s⁻¹.

B2: PR005144 (VHH)
VHH: EVQLVETGGGLIQPGGSLRLSCAASGFNVSFYYMSWVRQAPGKGREWVSIIDKSGSTYYAASVKGRFTISRDNSKNRLYLQMNSLRAEDTAMYYCARATEVREKNGYNYPFNYWGQGTLVTVSS
notes: Monovalent single-domain (VH) variant of PR002481 with Flag-6His tag
B2: in experiment [2], it took 22.9 nM to reach a half-maximal effect (EC50) and the “MFI Maximum” value was found to be 11600. In experiment [3], the affinity, expressed as Kd, was 4.51 nM; the off-rate (koff) is 4.52e-05 s⁻¹; the kon was 10000 M⁻¹ s⁻¹. For the same molecule, in experiment [4], the kdis ratio is 25.2.

B3: PR005145 (VHH)
VHH: EVQLVETGGGLIQPGGSLRLSCAASGFNVSFYYMSWVRQAPGKGREWVSIIDKGGSTYYGDSVKGRFTISRDNSKNRLYLQMNSLRAEDTAMYYCARATEVREKNGYNYPFNYWGQGTLVTVSS
notes: as for B2
Regarding B3, in experiment [2], the EC50 is 18 nM and the “MFI Maximum” value stood at 10500. In experiment [3], this molecule gave a Kd of 5.31 nM, a koff of 5.24e-05 s⁻¹ and an association rate constant (kon) of 9860 M⁻¹ s⁻¹. In experiment [4], the kdis ratio was found to be 21.8.

B4: PR002473 (antibody, human IgG1, V domains shown)
VH: EVQLVETGGGLIQPGGSLRLSCAASGFNVSSHYMSWVRQAPGKGLEWVSIIHSGGSTYYADSVKGRFTISRDNSKNRLYLQMNSLIAEDTAVYYCARAIAVAEKNGYNYPFNYWGQGTLVTVSS
notes: Heavy-chain-only antibody (HCAb), human IgG1 Fc; two heavy chains, no light chain; also called R4004P541H11
Consider B4, for which, in experiment [5], the IC50 came to 4.79 nM and the “Maximum inhibition rate (%)” value amounted to 62.2%. In experiment [2], the response was half-maximal at 25.6 nM (EC50) and the “MFI Maximum” value is 1.04e+06.

B5: PR002477 (antibody, human IgG1, V domains shown)
VH: EVQLVETGGGLIQPGGSLRLSCAASGFNVSSHYMSWVRQAPGKGLEWVSIIHSGGSTYYADSVKGRFTISRDNSKNRLYLQMNSLRAEDTAVYYCARAIAVAEKNGYNYPFNYWGQGTLVTVSS
notes: Heavy-chain-only antibody (HCAb), human IgG1 Fc; two heavy chains, no light chain; also called R4004P547H9
Regarding B5, in experiment [5], the IC50 is 7.7 nM and the “Maximum inhibition rate (%)” value came out at 67.5%. In addition, in experiment [2], a half-maximal effect (EC50) was put at 29.3 nM and the “MFI Maximum” value amounted to 955000.

B6: PR002478 (antibody, human IgG1, V domains shown)
VH: EVQLVETGGGLIQPGGSLRLSCAASGFNVSSNYMSWVRQAPGKGLEWVSIIHSGGSTYYADSVKGRFTISRDNSKNRLYLQMNSLRAEDTAVYYCARAIAVAEKNGYNYPFNYWGQGTLVTVSS
notes: Heavy-chain-only antibody (HCAb), human IgG1 Fc; two heavy chains, no light chain; also called R4004P548A8
For B6, in experiment [5], the IC50 is 54.5 nM and the “Maximum inhibition rate (%)” value was determined as 97%. Also, in experiment [2], it took 20.6 nM to reach a half-maximal effect (EC50) and the “MFI Maximum” value stood at 953000.

B7: PR005148 (VHH)
VHH: EVQLVETGGGLIQPGGSLRLSCAASGFNVSSHYMSWVRQAPGKGREWVSIIDKAGSGYYAASVKGRFTISRDNSKNRLYLQMNSLRAEDTAMYYCARATEVREKNGYNYPFNYWGQGTLVTVSS
notes: as for B2
Take B7: in experiment [2], it took 27.6 nM to reach a half-maximal effect (EC50) and the “MFI Maximum” value turned out to be 11700. In experiment [3], this molecule displayed a dissociation constant Kd of 1.21 nM, a koff of 5.72e-05 s⁻¹ and a kon of 47200 M⁻¹ s⁻¹. In addition, the kdis ratio in experiment [4] was 20.

B8: PR005141 (VHH)
VHH: EVQLVETGGGLIQPGGSLRLSCAASGFNVSYFYMSWVRQAPGKGREWVSIIDKGGSGYYAASVKGRFTISRDNSKNRLYLQMNSLRAEDTAMYYCARATEVREKNGYNYPFNYWGQGTLVTVSS
notes: as for B2
Regarding B8, in experiment [2], the EC50 came to 110 nM and the “MFI Maximum” value was found to be 13300. For the same molecule, in experiment [3], the dissociation constant (Kd) was 1.49 nM, the koff amounted to 7.75e-05 s⁻¹ and the kon was determined as 52100 M⁻¹ s⁻¹. In addition, the kdis ratio in experiment [4] turned out to be 14.7.

B9: PR005146 (VHH)
VHH: EVQLVETGGGLIQPGGSLRLSCAASGFNVSFHYMSWVRQAPGKGREWVSIIDGAGSGYYAASVKGRFTISRDNSKNRLYLQMNSLRAEDTAMYYCARATMVREKQGYNYPFNYWGQGTLVTVSS
notes: as for B2
As to B9, in experiment [3], the Kd is 1020 nM, the koff is 0.000605 s⁻¹ and the kon is 593 M⁻¹ s⁻¹. Further, the kdis ratio in experiment [4] was 1.89.

B10: PR005150 (VHH)
VHH: EVQLVETGGGLIQPGGSLRLSCAASGFNVSSFYMSWVRQAPGKGREWVSIIDKAGSTYYGASVKGRFTISRDNSKNRLYLQMNSLRAEDTAMYYCARATEVREKQGYNYPFNYWGQGTLVTVSS
notes: as for B2
Consider B10, for which, in experiment [2], it took 22.4 nM to reach a half-maximal effect (EC50) and the “MFI Maximum” value is 10400. For the same molecule, in experiment [3], the Kd is under 0.001 nM, the koff is under 1e-07 s⁻¹ and the kon was 59000 M⁻¹ s⁻¹.

B11: PR002475 (antibody, human IgG1, V domains shown)
VH: EVQLVETGGGLIQPGGSLRLSCAASGFNVSSNYMSWVRQAPGKGLEWVSIIHSGGSTYYADSVKGRFTISRDNSKNTLYLQMNSLRAEDTAVYYCARAIAVAEKNGYNYPFNYWGQGTLVTVSS
notes: Heavy-chain-only antibody (HCAb), human IgG1 Fc; two heavy chains, no light chain; also called R4004P547D9
Take B11: in experiment [5], the IC50 came to 37.5 nM and the “Maximum inhibition rate (%)” value was determined as 92.1%. For the same molecule, in experiment [2], the EC50 was 18.5 nM and the “MFI Maximum” value came to 959000.

B12: PR005147 (VHH)
VHH: EVQLVETGGGLIQPGGSLRLSCAASGFNVSYYYMSWVRQAPGKGREWVSIIDKAGSTYYGASVKGRFTISRDNSKNRLYLQMNSLRAEDTAMYYCARATMVREKNGYNYPFNYWGQGTLVTVSS
notes: as for B2
Consider B12, for which, in experiment [2], the EC50 came out at 382 nM and the “MFI Maximum” value came to 18000. In experiment [3], this molecule came in with a Kd of 16.5 nM, a koff of 2.74e-05 s⁻¹ and a kon of 1660 M⁻¹ s⁻¹. Further, in experiment [4], the kdis ratio is 41.7.

B13: PR005142 (VHH)
VHH: EVQLVETGGGLIQPGGSLRLSCAASGFNVSFYYMSWVRQAPGKGREWVSIIDKGGSGYYAASVKGRFTISRDNSKNRLYLQMNSLRAEDTAMYYCARATEVREKNGYNYPFNYWGQGTLVTVSS
notes: as for B2
B13: in experiment [2], the concentration for a half-maximal effect (EC50) was determined as 70.9 nM and the “MFI Maximum” value was determined as 12400. Moreover, in experiment [3], the Kd was found to be 6.76 nM, the koff was determined as 5.55e-05 s⁻¹ and the kon was determined as 8200 M⁻¹ s⁻¹. Moreover, in experiment [4], the kdis ratio was 20.6.
